Columns and labels:
[1] = target: human Nav1.2 (sodium channel protein type 2 subunit alpha) (human) (UniProt Q99250); assay: cell-based or functional assay
[2] = target: human Nav1.7 (sodium channel protein type 9 subunit alpha) (human) (UniProt Q15858); assay: cell-based or functional assay

Work on recombinant Huwentoxin-IV (peptide) yielded an IC50, veratridine-induced depolarization inhibition assay [1] of 342 nM, an IC50, veratridine-induced depolarization inhibition assay [2] of 159 nM and a ratio of IC50 for Nav1.2 to IC50 for Nav1.7 [2] of 2.14.

Reference: US20150087596A1
